Results: US20160046723A1 (BIONOMICS, published 2016)
One block for each binder: values may come before it.

Tests used:
[1] = biological target: T1, recombinant human LGR4 ectodomain-IgG-Fc fusion (R&D Systems) (human, UniProt Q9BXB1 25-540, limits assumed); experiment: ELISA, plate coated with 2 or 1 ug/mL hLGR4-Fc, detected with HRP anti-human IgG-CH1
T1 construct: Bought construct; also called Human LGR4-Fc; LGR4-Fc; not shown: IgG Fc; detected with anti-human IgG Fc antibody
Procedure: (§1) Binding of the humanized anti-LGR4 antibodies 1C5HE and 1C5HG to human and LGR4 was assessed in vitro using an ELISA-based plate binding assay. The assay measured antibody binding to ELISA plate-bound purified recombinant LGR4 ectodomain-IgG-Fc fusion (R&D Systems), with detection of LGR4-bound antibody with horseradish peroxidase-conjugated anti-human IgG-CH1 secondary antibody.

[2] = biological target: T1, recombinant human LGR4 …; experiment: ELISA, plate coated with 2 ug/mL hLGR4-Fc, detected with HRP anti-human IgG-CH1
Procedure: as §1

[3] = biological target: T2, recombinant mouse LGR4 ectodomain-IgG-Fc fusion (R&D Systems) (mouse, UniProt A2ARI4 25-540, limits assumed); experiment: BLI (Octet QK), biotinylated antibody on streptavidin tips, LGR4-Fc 5-80 nM in solution, 1:1 global fit, 30 degrees
T2 construct: extracellular domain; Bought construct; also called mouse LGR4-Fc; murine LGR4; not shown: IgG Fc
Procedure: (§2) Binding kinetics of LGR4 antibodies to human and mouse LGR4 were determined using label-free plate-based Octet QK instrument (Pall ForteBio, LLC, Menlo Park, Calif.) at 30 degrees. Biotinylated 1C5 and 8F3 LGR4 antibodies were diluted to 5 μg/mL in 1×PBS and immobilized on streptavidin tips (Pall ForteBio, LLC, Menlo Park, Calif.). Plate shaking speed was 1000 rpm. The antibodies were captured on the tips for 150 sec. To establish a baseline, the tips were transferred into wells containing binding buffer (1×PBS, supplemented with 0.1% bovine serum albumin and 0.05% Tween 20) for 60 sec. Human LGR4-Fc (R&D Systems) and mouse LGR4-Fc (R&D Systems) were diluted in binding buffer to 80 nM, 40 nM, 20 nM, 10 nM, 5 nM to make a concentration series. Additionally, a buffer-only well was used as reference. 1C5 and 8F3-coated tips were transferred into wells containing human LGR4 and mouse LGR4 dilution series for 180 sec to measure receptor association. The tips were then dipped into binding buffer for 300 sec to measure receptor dissociation.
(§3) Data were collected using ForteBio Data Acquisition software v7.1 and analyzed using ForteBio Data Analysis software v7.1. Data were referenced by subtracting signal from the buffer sample, and fitted to a 1:1 binding model using global fitting with unlinked Rmax. The experiment was repeated three times. Sample curve fits, kinetic rate constants, and KD for 1C5 and 8F3 LGR4 antibodies are shown below in Table 5.

[4] = biological target: T1, recombinant human LGR4 …; experiment: as above
Procedure: as §2, §3

[5] = biological target: T2, recombinant mouse LGR4 …; experiment: BLI (Octet QK), biotinylated antibody on streptavidin tips, LGR4-Fc in solution, 1:1 global fit
Procedure: as §2, §3

[6] = biological target: T1, recombinant human LGR4 …; experiment: as above
Procedure: as §2, §3

[7] = biological target: T2, recombinant mouse LGR4 …; experiment: ELISA, plate coated with 0.5 ug/mL mLGR4-Fc, biotinylated antibody detected with streptavidin-HRP
Procedure: (§4) Binding of the anti-LGR4 antibodies to human and murine LGR4 was assessed in vitro using an ELISA-based plate binding assay. The assay measured biotinylated antibody binding to ELISA plate-bound purified recombinant, LGR4 ectodomain-IgG-Fc fusion, with detection of LGR4-bound antibody with horseradish peroxidase-conjugated streptavidin. […] Binding data from two of the antibodies, 8F3 and 1C5 are shown in FIGS. 5A and 5B, respectively.

[8] = biological target: T1, recombinant human LGR4 …; experiment: ELISA, plate coated with 0.5 ug/mL hLGR4-Fc, biotinylated antibody detected with streptavidin-HRP
Procedure: as §4

[9] = biological target: T1, recombinant human LGR4 …; experiment: BLI (Octet QK), biotinylated antibody on streptavidin tips, LGR4-Fc in solution; exponent as printed (E+04), KD fits E-04
Procedure: as §2
as §3, with “Sample curve fits, kinetic rate constants, and KD for 1C5 and 8F3 LGR4 antibodies are shown below in Table 5.” left out

[10] = biological target: T3, human LGR4 on the cell surface (recombinant on CHO cells; endogenous on HEK-293T cells) (human, UniProt Q9BXB1 25-951); experiment: flow cytometry on CHO-LGR4 cells, PE anti-rat IgG secondary
T3 construct: also called CHO-LGR4; GPR48
Procedure: (§5) A flow cytometry-based assay was used to measure the binding of purified anti-LGR4 antibodies 1C5 and 8F3 to recombinant human LGR4 protein overexpressed on the surface of CHO cells. CHO and CHO-LGR4 cells were stained with serial dilutions of anti-LGR4 antibodies at 4° C. Surface staining was detected with PE-conjugated anti-rat IgG secondary antibodies and analyzed on the FACSCalibur (FIG. 4A and FIG. 4B). […] An antibody control (pooled rat IgG) was used as a negative isotype control in these experiments as well as wild-type CHO without LGR4.

[11] = biological target: T1, recombinant human LGR4 …; experiment: BLI (Octet QK), biotinylated antibody on streptavidin tips, LGR4-Fc in solution; receptor printed 'Human LGR4' a second time for 8F3, possibly mouse LGR4
Procedure: as §2
as §3, with “Sample curve fits, kinetic rate constants, and KD for 1C5 and 8F3 LGR4 antibodies are shown below in Table 5.” left out

[12] = biological target: T1, recombinant human LGR4 …; experiment: BLI (Octet QK); receptor printed 'Human LGR4' a second time for 8F3, possibly mouse LGR4
Procedure: as §2
as §3, with “Sample curve fits, kinetic rate constants, and KD for 1C5 and 8F3 LGR4 antibodies are shown below in Table 5.” left out

[13] = biological target: T3, human LGR4 on the cell surface …; experiment: flow cytometry on CHO-LGR4 cells, PE anti-rat IgG secondary [printed FIB. 4B]
Procedure: as §5

binding result [1]: binds
B1: humanized anti-LGR4 antibody 1C5HG (antibody, human IgG1, V domains shown)
VH: EVQLVQSGAEVKKPGESLKISCKGSGYTFTSNFMHWVRQMPGKGLEWIGWIYPGDGDTEYNQKFNGKVTISADKSISTAYLQWSSLKASDTAMYYCARGNSGYNWFAYWGQGTTVTVSS
VL: EIVMTQSPATLSVSPGERATLSCKASQNINKNLDWYQQKPGQAPRLLIYYTNNLQTGIPARFSGSGSGTEFTLTISSLQSEDFAVYYCYQYKSGNTFGQGTKLEIK
notes: VH fused to the human IgG1 constant region, VL fused to the human kappa constant region; recombinant IgG from HEK 293 cells

EC50 (read off the curve) [2]: ~2 nM
B2: humanized anti-LGR4 antibody 1C5HE (antibody, human IgG1, V domains shown)
VH: QVQLVQSGAEVKKPGASVKVSCKASGYTFTSNFMHWVRQAPGQGLEWIGWIYPGDGDTEYNQKFNGKVTMTRDTSTSTVYMELSSLRSEDTAVYYCARGNSGYNWFAYWGQGTTVTVSS
VL: EIVMTQSPATLSVSPGERATLSCKASQNINKNLDWYQQKPGQAPRLLIYYTNNLQTGIPARFSGSGSGTEFTLTISSLQSEDFAVYYCYQYKSGNTFGQGTKLEIK
notes: as for B1

kon [3]: 339000 M⁻¹ s⁻¹ | kon [4]: 438000 M⁻¹ s⁻¹ | Kd [5]: 1.31 nM | Kd [6]: 1.47 nM | EC50 (read off the curve) [7]: ~0.1 nM | EC50 (read off the curve) [8]: ~0.1 nM | koff [9]: 0.000635 s⁻¹ | EC50 (read off the curve) [10]: ~0.2 nM
B3: anti-LGR4 rat monoclonal antibody 1C5 (antibody, V domains shown)
VH: QVQLQQSGAELVKPGSSVKISCKASGYTFTSNFMHWIKQQPGNGPEWIGWIYPGDGDTEYNQKFNGKATLIADKSSTTAYMQLRSLTSEDSAVYFCARGNSGYNWFAYWGQGTLVTVSS
VL: DIQMTQSPPVLSASVGDRVTLSCKASQNINKNLDWYQQKHGEAPRLLIYYTNNLQTGIPSRFSGSGSGTDYTLTISSLQPEDVATYFCYQYKSGNTFGAGTKLELK
notes: Rat monoclonal antibody purified from hybridoma supernatant; also called 1C5 mAb; biotinylated 1C5

kon [4]: 397000 M⁻¹ s⁻¹ | Kd [6]: 0.47 nM | EC50 (read off the curve) [7]: ~0.08 nM | kon [11]: 357000 M⁻¹ s⁻¹ | EC50 (read off the curve) [8]: ~0.1 nM | Kd [12]: 0.47 nM | EC50 (read off the curve) [13]: ~0.2 nM
B4: anti-LGR4 rat monoclonal antibody 8F3 (antibody, V domains shown)
VH: QVQLQQSGAELVKPGSSVKISCKASGYTFTSYFIHWIKQQPGNGLEWIGWIYPGDGDTEYNQKFNGKATFIADKSSSTADMQLNSLTSEDSAVYFCARSKSAYNWFAYWGQGTLVTVSS
VL: DIQMTQSPPVLSASVGDRVTLSCKASQNINKNLDWYHQKHGEAPKLLIYYTNNLQTGIPSRFSGSGSGTDYTLIISSLQPEDVATYYCYQYNSGPTFGTGTKLELK
notes: Rat monoclonal antibody purified from hybridoma supernatant; also called 8F3 mAb; biotinylated 8F3
